# Assay results taken from IntAct's records for PubMed 20696164.
# B1: E3 ubiquitin-protein ligase SH3RF3 (Homo sapiens), Q8TEJ3 (parent)
# chain: MLLGASWLCASKAAAAAAQSEGDEDRPGERRRRRAAATAAGAGEDMDESSLLDLLECSVCLERLDTTAKVLPCQHTFCRRCLESIVCSRHELRCPECRILVGCGVDELPANILLVRLLDGIRQRPRAGTSPGGSPPARPIPGQSAAPTLAGGGGGAAGSTPGSPVFLSAAAGSTAGSLRELATSRTAPAAKNPCLLPYGKALYSYEGKEPGDLKFNKGDIIVLRRKVDEQWYHGELHGTQGFLPASYIQCIQPLPHAPPQGKALYDFEMKDKDQDKDCLTFTKDEILTVLRRVDENWAEGMLGDKIGIFPLLYVELNDSAKQLIEMDKPCPAAASSCNASLPSDSGAVASVAPSPTLSSSGAVSAFQRRVDGKKNTKKRHSFTALSVTHRSSQAASHRHSMEISAPVLISSSDPRAAARIGDLAHLSCAAPTQDVSSSAGSTPTAVPRAASVSGEQGTPPKVQLPLNVYLALYAYKPQKSDELELHKGEMYRVLEKCQDGWFKGASLRTGVSGVFPGNYVTPVSRVPAGGAGPPRNNVVGGSPLAKGITTTMHPGSGSLSSLATATRPALPITTPQAHAQHPTASPPTGSCLRHSAQPTASQARSTISTAAHSAAQAQDRPTATVSPLRTQNSPSRLPATSLRPHSVVSPQHSHQPPVQMCPRPAIPLTSAASAITPPNVSAANLNGEAGGGPIGVLSTSSPTNTGCKLDEKKSEKKEKKSGLLKLLAGASTKKKSRSPPSVSPTHDPQVAVDALLQGAVGPEVSSLSIHGRAGSCPIESEMQGAMGMEPLHRKAGSLDLNFTSPSRQAPLSMAAIRPEPKLLPRERYRVVVSYPPQSEAEIELKEGDIVFVHKKREDGWYKGTLQRNGRTGLFPGSFVESF
# B2: E3 ubiquitin-protein ligase SH3RF1 (Homo sapiens), Q7Z6J0 (parent)
# chain: MDESALLDLLECPVCLERLDASAKVLPCQHTFCKRCLLGIVGSRNELRCPECRTLVGSGVEELPSNILLVRLLDGIKQRPWKPGPGGGSGTNCTNALRSQSSTVANCSSKDLQSSQGGQQPRVQSWSPPVRGIPQLPCAKALYNYEGKEPGDLKFSKGDIIILRRQVDENWYHGEVNGIHGFFPTNFVQIIKPLPQPPPQCKALYDFEVKDKEADKDCLPFAKDDVLTVIRRVDENWAEGMLADKIGIFPISYVEFNSAAKQLIEWDKPPVPGVDAGECSSAAAQSSTAPKHSDTKKNTKKRHSFTSLTMANKSSQASQNRHSMEISPPVLISSSNPTAAARISELSGLSCSAPSQVHISTTGLIVTPPPSSPVTTGPSFTFPSDVPYQAALGTLNPPLPPPPLLAATVLASTPPGATAAAAAAGMGPRPMAGSTDQIAHLRPQTRPSVYVAIYPYTPRKEDELELRKGEMFLVFERCQDGWFKGTSMHTSKIGVFPGNYVAPVTRAVTNASQAKVPMSTAGQTSRGVTMVSPSTAGGPAQKLQGNGVAGSPSVVPAAVVSAAHIQTSPQAKVLLHMTGQMTVNQARNAVRTVAAHNQERPTAAVTPIQVQNAAGLSPASVGLSHHSLASPQPAPLMPGSATHTAAISISRASAPLACAAAAPLTSPSITSASLEAEPSGRIVTVLPGLPTSPDSASSACGNSSATKPDKDSKKEKKGLLKLLSGASTKRKPRVSPPASPTLEVELGSAELPLQGAVGPELPPGGGHGRAGSCPVDGDGPVTTAVAGAALAQDAFHRKASSLDSAVPIAPPPRQACSSLGPVLNESRPVVCERHRVVVSYPPQSEAELELKEGDIVFVHKKREDGWFKGTLQRNGKTGLFPGSFVENI
# Variants of: B1
# Conditions: with rac1_human RAC1, P63000
row,Variant,effect of a mutation on the interaction
1,P414A,decreasing interaction

# Variants of: B1
# Conditions: with rac1_human RAC1, P63000
# Remark: another data set of the same source
row,Variant,effect of a mutation on the interaction
1,L385A,decreasing interaction

# Variants of: B1
# Conditions: with rac1_human RAC1, P63000
# Remark: another data set of the same source
row,Variant,effect of a mutation on the interaction
1,S404P,disrupting interaction
2,P406A,disrupting interaction
3,I403N,disrupting interaction

# Variants of: B1
# Conditions: with ubc_human UBC
row,Variant,effect of a mutation on the interaction
1,H75A,decreasing interaction
2,C73A,decreasing interaction

# Variants of: B2
# Conditions: with ubc_human UBC
row,Variant,effect of a mutation on the interaction
1,H30A,decreasing interaction
2,C28A,decreasing interaction
